± gives the standard deviation of the averaged measurements.
Tested on: Saccharomyces cerevisiae
Experiment: protein stability index of tFT-peptide fusion (C-terminal peptide) (PSI (0-1 scale)); higher = more stable (slower turnover)
Conditions: temperature: 30 C
Protocol: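 MPS profiling in S. cerevisiae of the yeast C-terminome library: the last 12 aa of each annotated ORF are fused to the C-terminus of a sfGFP-mCherry timer, after a GGGS linker. Cells are FACS-sorted into 8 mCherry/sfGFP bins and deep-sequenced. PSI runs from 0 (unstable) to 1 (stable); wild type and das1Δ backgrounds, two technical replicates each.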

[1] = genetic background: das1 deletion

| Sequence | protein stability index [1] | protein stability index (genetic background: wild type) |
| --- | --- | --- |
| PPKSIFDTDDDD [RCN1 C-terminal 12 aa] | 0.741 ± 0.025 | 0.714 ± 0.054 |
| PSPGFHMYGCHT [YLR156W C-terminal 12 aa] | 0.708 ± 0.022 | 0.695 ± 0.0084 |
| PSYAKVQEFATP [NEO1 C-terminal 12 aa] | 0.71 ± 0.0097 | 0.684 ± 0.0059 |
| PVTPAVSKRYQP [YER084W C-terminal 12 aa] | 0.715 ± 0.0072 | 0.6939 ± 0.003 |
| QAIEDKLNKMSR [BIL1 C-terminal 12 aa] | 0.686 ± 0.026 | 0.683 ± 0.018 |
| QALFVLYYLYSI [YDR406W-A C-terminal 12 aa] | 0.428 ± 0.018 | 0.445 ± 0.013 |
| QDKQVKSWWRFW [CBP4 C-terminal 12 aa] | 0.762 ± 0.016 | 0.7144 ± 0.0053 |
| QEANDDLMIDVN [ENP1 C-terminal 12 aa] | 0.678 ± 0.045 | 0.699 ± 0.015 |
| QGQKFIHDNNTN [YMR245W C-terminal 12 aa] | 0.673 ± 0.031 | 0.646 ± 0.018 |
| QHIKTHKKHGDI [MSN2 C-terminal 12 aa] | 0.67783 ± 0.00033 | 0.667 ± 0.014 |
| QIDKLLTVLDSL [RTP1 C-terminal 12 aa] | 0.717 ± 0.023 | 0.691 ± 0.038 |
| QIIYYIARSKGL [MEC3 C-terminal 12 aa] | 0.665 ± 0.058 | 0.668 ± 0.035 |
| QIRSVFSGVYGG [ASP3-1 C-terminal 12 aa] | 0.691 ± 0.013 | 0.689 ± 0.049 |
| QKAKLNKLDSKK [NOP7 C-terminal 12 aa] | 0.677 ± 0.0057 | 0.704 ± 0.068 |
| QKEPNDQIDVEE [GPN3 C-terminal 12 aa] | 0.673 ± 0.025 | 0.698 ± 0.042 |
| QKRIQRKKMNEM [AIM23 C-terminal 12 aa] | 0.71243 ± 0.0002 | 0.663 ± 0.014 |
| QKYLEELQKKKF [YET2 C-terminal 12 aa] | 0.712 ± 0.023 | 0.7424 ± 0.0019 |
| QLIDIAKKMGIL [BIR1 C-terminal 12 aa] | 0.678 ± 0.051 | 0.276 ± 0.0083 |
| QLQMILFGKKFK [PET9 C-terminal 12 aa] | 0.711 ± 0.016 | 0.701 ± 0.021 |
| QNDRRSVLKKYI [YER010C C-terminal 12 aa] | 0.69 ± 0.025 | 0.666 ± 0.021 |
| QNQDEPITENFE [TUB2 C-terminal 12 aa] | 0.718 ± 0.016 | 0.718 ± 0.025 |

| Sequence | protein stability index [1] | protein stability index (genetic background: wild type) |
| --- | --- | --- |
| QPKIEINVDQYD [SPC1 C-terminal 12 aa] | 0.691 ± 0.047 | 0.6919 ± 0.0036 |
| QQPNQNQNQNSK [FIP1 C-terminal 12 aa] | 0.738 ± 0.049 | 0.676 ± 0.019 |
| QQSPHPVVDNDK [KIP2 C-terminal 12 aa] | 0.6922 ± 0.0065 | 0.682 ± 0.035 |
| QRIHQTLEVPNL [FAR1 C-terminal 12 aa] | 0.708 ± 0.01 | 0.692 ± 0.06 |
| QRTVKQEGNKGG [GZF3 C-terminal 12 aa] | 0.712 ± 0.021 | 0.69986 ± 0.00047 |
| QSILACCQESNK [LCB1 C-terminal 12 aa] | 0.702 ± 0.0093 | 0.645 ± 0.0071 |
| QSPLMDMLAPQL [TOM6 C-terminal 12 aa] | 0.706 ± 0.015 | 0.7117 ± 0.00029 |
| QSQYPDVGIPAI [YAR023C C-terminal 12 aa] | 0.7082 ± 0.0034 | 0.669 ± 0.011 |
| QSSHFGQVDEII [DUR3 C-terminal 12 aa] | 0.684 ± 0.046 | 0.726 ± 0.04 |
| QSTAVFFTNKTD [YER076W-A C-terminal 12 aa] | 0.707 ± 0.018 | 0.684 ± 0.046 |
| QTDGMGLVSWWE [RPC25 C-terminal 12 aa] | 0.751 ± 0.011 | 0.749 ± 0.041 |
| QTILFAAFLPPA [GPI18 C-terminal 12 aa] | 0.696 ± 0.025 | 0.682 ± 0.008 |
| QTTFLATAIVLC [YOR331C C-terminal 12 aa] | 0.441 ± 0.018 | 0.4167 ± 0.0014 |
| QTTRMLNDLIVS [MGA2 C-terminal 12 aa] | 0.664 ± 0.01 | 0.667 ± 0.017 |
| QVHPSRQELSFT [DON1 C-terminal 12 aa] | 0.7176 ± 0.0016 | 0.701 ± 0.069 |
| QVTWHKHSPRIQ [YKL202W C-terminal 12 aa] | 0.713 ± 0.024 | 0.7036 ± 0.0056 |
| RCSETKQQVMNS [BTT1 C-terminal 12 aa] | 0.669 ± 0.033 | 0.691 ± 0.0026 |
| REGVVPPVGITN [EGO4 C-terminal 12 aa] | 0.706 ± 0.031 | 0.66 ± 0.024 |
| RELREHTKLLHS [YIL082W-A C-terminal 12 aa] | 0.6879 ± 0.0029 | 0.597 ± 0.021 |
| REVDDRFKVIYV [VPS35 C-terminal 12 aa] | 0.692 ± 0.018 | 0.695 ± 0.029 |
| RFAKGGKFVEVD [ATP18 C-terminal 12 aa] | 0.6904 ± 0.001 | 0.6675 ± 0.0047 |

| Sequence | protein stability index [1] | protein stability index (genetic background: wild type) |
| --- | --- | --- |
| RFYFLSIFKYII [YBR191W-A C-terminal 12 aa] | 0.633 ± 0.023 | 0.331 ± 0.02 |
| RGRIAAQKRISA [RPL17B C-terminal 12 aa] | 0.681 ± 0.014 | 0.663 ± 0.016 |
| RHAASLLGMSTK [VPS17 C-terminal 12 aa] | 0.714 ± 0.0089 | 0.762 ± 0.03 |
| RHCARVKRSSRL [LYS1 C-terminal 12 aa] | 0.778 ± 0.024 | 0.823 ± 0.046 |
| RKEVIDALVSLS [AIM46 C-terminal 12 aa] | 0.7011 ± 0.0026 | 0.6881 ± 0.0046 |
| RKFFSMRSLNSR [CHL1 C-terminal 12 aa] | 0.696 ± 0.014 | 0.6589 ± 0.0015 |
| RKLFLVVKDNIL [JIP3 C-terminal 12 aa] | 0.695 ± 0.016 | 0.734 ± 0.015 |
| RKNNKKSISYYG [YOR203W C-terminal 12 aa] | 0.706 ± 0.011 | 0.731 ± 0.0063 |
| RKRKQSKSGLLL [NOP8 C-terminal 12 aa] | 0.723 ± 0.024 | 0.699 ± 0.01 |
| RKRLRTLDNWYR [RNH201 C-terminal 12 aa] | 0.7355 ± 0.0016 | 0.7169 ± 0.0049 |
| RLDKATKALEGF [NBA1 C-terminal 12 aa] | 0.6942 ± 0.0018 | 0.702 ± 0.033 |
| RLGNLENIKIPK [AIM4 C-terminal 12 aa] | 0.737 ± 0.0074 | 0.696 ± 0.038 |
| RLLSLWEVFQMA [RPC82 C-terminal 12 aa] | 0.646 ± 0.027 | 0.6182 ± 0.0037 |
| RLNNWLFGWNDL [NUP53 C-terminal 12 aa] | 0.785 ± 0.012 | 0.707 ± 0.0094 |
| RLQAMLNSSSSI [CEF1 C-terminal 12 aa] | 0.681 ± 0.015 | 0.669 ± 0.008 |
| RLRAKSPYAWDD [YHK8 C-terminal 12 aa] | 0.729 ± 0.0089 | 0.721 ± 0.053 |
| RLTSRSGSANRA [SAC7 C-terminal 12 aa] | 0.706 ± 0.028 | 0.65006 ± 5.7e-05 |
| RLVRNVELSKEK [MTD1 C-terminal 12 aa] | 0.708 ± 0.028 | 0.718 ± 0.062 |
| RLWSRKEFRLGT [SNU71 C-terminal 12 aa] | 0.7 ± 0.017 | 0.7 ± 0.029 |
